The target in test [1] is CCR7 (Homo sapiens) (UniProt P32248). Particulars: cited from earlier work.
The target is the same in test [2]. Particulars: cited from earlier work. The source holds these as a separate data set.
In test [3] the target is C-C Chemokine Receptor 7 (CCR7), endogenous in CEM cells (human (endogenous in CEM)) (UniProt P32248).

Where two headings read alike, the source gives them in different places.

Sequence of CCL19 (Q99731 22-98): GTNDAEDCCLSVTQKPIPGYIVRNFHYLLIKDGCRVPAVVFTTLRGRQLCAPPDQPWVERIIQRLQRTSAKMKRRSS

Broadly, the Kd is the constant that tells how readily two partners part at equilibrium. In the case of CCL19 (from UniProt Q99731), the Kd with CCR7 (Homo sapiens) [1] is 0.1 nM.
For the substance CCL21 (from UniProt O00585), the Kd with CCR7 (Homo sapiens) [2] was 0.1 nM.
As to “human C-C Chemokine Ligand 19 (hCCL19) (from UniProt Q99731 22-98)”, the CCR7 internalization (CCR7 left on the surface, flow cytometry) in CEM T cells with 200 nM CCL19, measured at 2 min intervals over 10 min in test [3] was 80%.

Source of the values: publication PMC12807514.
